Results published in patent US20160244497A1 (Amgen, published 2016).
Where two headings read alike, the source gives them in different places.

Legend:
beta-klotho [1] = assay: cell-based or functional assay
beta-klotho [2] = assay: cell-based or functional assay; remark: listed apart in the source

| Binder | EC50, ELK-luciferase assay (beta-klotho [1]) [nM] | EC50, ELK-luciferase assay (beta-klotho [2]) [nM] |
| --- | --- | --- |
| PEGylated FGF21 mutant H125C (ligand, 20 kDa methoxy-PEG-maleimide on Cys 125) MHPIPDSSPLLQFGGQVRQRYLYTDDAQQTEAHLEIREDGTVGGAADQSPESLLQLKALKPGVIQILGVKTSRFLCQRPDGALYGSLHFDPEACSFRELLLEDGYNVYQSEAHGLPLHLPGNKSPCRDPAPRGPARFLPLPGLPPAPPEPPGILAPQPPDVGSSDPLSMVGPSQGRSPSYAS | 4.5 |  |
| dually PEGylated FGF21 mutant K69C, G120C (ligand, 20 kDa methoxy-PEG-maleimide on Cys 69 and on Cys 120) MHPIPDSSPLLQFGGQVRQRYLYTDDAQQTEAHLEIREDGTVGGAADQSPESLLQLKALKPGVIQILGVCTSRFLCQRPDGALYGSLHFDPEACSFRELLLEDGYNVYQSEAHGLPLHLPCNKSPHRDPAPRGPARFLPLPGLPPAPPEPPGILAPQPPDVGSSDPLSMVGPSQGRSPSYAS |  | 119 |
| PEGylated FGF21 mutant G113C (ligand, 20 kDa methoxy-PEG-maleimide on Cys 113) MHPIPDSSPLLQFGGQVRQRYLYTDDAQQTEAHLEIREDGTVGGAADQSPESLLQLKALKPGVIQILGVKTSRFLCQRPDGALYGSLHFDPEACSFRELLLEDGYNVYQSEAHCLPLHLPGNKSPHRDPAPRGPARFLPLPGLPPAPPEPPGILAPQPPDVGSSDPLSMVGPSQGRSPSYAS | 12 |  |
| PEGylated FGF21 mutant R175C (ligand, 20 kDa methoxy-PEG-maleimide on Cys 175) MHPIPDSSPLLQFGGQVRQRYLYTDDAQQTEAHLEIREDGTVGGAADQSPESLLQLKALKPGVIQILGVKTSRFLCQRPDGALYGSLHFDPEACSFRELLLEDGYNVYQSEAHGLPLHLPGNKSPHRDPAPRGPARFLPLPGLPPAPPEPPGILAPQPPDVGSSDPLSMVGPSQGCSPSYAS | 7.9 |  |
| dually PEGylated FGF21 mutant R77C, R175C (ligand, 20 kDa methoxy-PEG-maleimide on Cys 77 and on Cys 175) MHPIPDSSPLLQFGGQVRQRYLYTDDAQQTEAHLEIREDGTVGGAADQSPESLLQLKALKPGVIQILGVKTSRFLCQCPDGALYGSLHFDPEACSFRELLLEDGYNVYQSEAHGLPLHLPGNKSPHRDPAPRGPARFLPLPGLPPAPPEPPGILAPQPPDVGSSDPLSMVGPSQGCSPSYAS |  | 62 |
| dually PEGylated FGF21 mutant E37C, G170C (ligand, 20 kDa methoxy-PEG-maleimide on Cys 37 and on Cys 170) MHPIPDSSPLLQFGGQVRQRYLYTDDAQQTEAHLEIRCDGTVGGAADQSPESLLQLKALKPGVIQILGVKTSRFLCQRPDGALYGSLHFDPEACSFRELLLEDGYNVYQSEAHGLPLHLPGNKSPHRDPAPRGPARFLPLPGLPPAPPEPPGILAPQPPDVGSSDPLSMVCPSQGRSPSYAS |  | 163 |
| dually PEGylated FGF21 mutant E37C, K69C (ligand, 20 kDa methoxy-PEG-maleimide on Cys 37 and on Cys 69) MHPIPDSSPLLQFGGQVRQRYLYTDDAQQTEAHLEIRCDGTVGGAADQSPESLLQLKALKPGVIQILGVCTSRFLCQRPDGALYGSLHFDPEACSFRELLLEDGYNVYQSEAHGLPLHLPGNKSPHRDPAPRGPARFLPLPGLPPAPPEPPGILAPQPPDVGSSDPLSMVGPSQGRSPSYAS |  | 67 |
| PEGylated FGF21 mutant E91C (ligand, 20 kDa methoxy-PEG-maleimide on Cys 91) MHPIPDSSPLLQFGGQVRQRYLYTDDAQQTEAHLEIREDGTVGGAADQSPESLLQLKALKPGVIQILGVKTSRFLCQRPDGALYGSLHFDPCACSFRELLLEDGYNVYQSEAHGLPLHLPGNKSPHRDPAPRGPARFLPLPGLPPAPPEPPGILAPQPPDVGSSDPLSMVGPSQGRSPSYAS | 8.3 |  |
| dually PEGylated FGF21 mutant K69C, H125C (ligand, 20 kDa methoxy-PEG-maleimide on Cys 69 and on Cys 125) MHPIPDSSPLLQFGGQVRQRYLYTDDAQQTEAHLEIREDGTVGGAADQSPESLLQLKALKPGVIQILGVCTSRFLCQRPDGALYGSLHFDPEACSFRELLLEDGYNVYQSEAHGLPLHLPGNKSPCRDPAPRGPARFLPLPGLPPAPPEPPGILAPQPPDVGSSDPLSMVGPSQGRSPSYAS |  | 164 |
| PEGylated FGF21 mutant G120C (ligand, 20 kDa methoxy-PEG-maleimide on Cys 120) MHPIPDSSPLLQFGGQVRQRYLYTDDAQQTEAHLEIREDGTVGGAADQSPESLLQLKALKPGVIQILGVKTSRFLCQRPDGALYGSLHFDPEACSFRELLLEDGYNVYQSEAHGLPLHLPCNKSPHRDPAPRGPARFLPLPGLPPAPPEPPGILAPQPPDVGSSDPLSMVGPSQGRSPSYAS | 6 |  |
| dually PEGylated FGF21 mutant K69C, E91C (ligand, 20 kDa methoxy-PEG-maleimide on Cys 69 and on Cys 91) MHPIPDSSPLLQFGGQVRQRYLYTDDAQQTEAHLEIREDGTVGGAADQSPESLLQLKALKPGVIQILGVCTSRFLCQRPDGALYGSLHFDPCACSFRELLLEDGYNVYQSEAHGLPLHLPGNKSPHRDPAPRGPARFLPLPGLPPAPPEPPGILAPQPPDVGSSDPLSMVGPSQGRSPSYAS |  | 69 |
| PEGylated FGF21 mutant Y179C (ligand, 20 kDa methoxy-PEG-maleimide on Cys 179) MHPIPDSSPLLQFGGQVRQRYLYTDDAQQTEAHLEIREDGTVGGAADQSPESLLQLKALKPGVIQILGVKTSRFLCQRPDGALYGSLHFDPEACSFRELLLEDGYNVYQSEAHGLPLHLPGNKSPHRDPAPRGPARFLPLPGLPPAPPEPPGILAPQPPDVGSSDPLSMVGPSQGRSPSCAS | 287 |  |
| dually PEGylated FGF21 mutant G120C, R175C (ligand, 20 kDa methoxy-PEG-maleimide on Cys 120 and on Cys 175) MHPIPDSSPLLQFGGQVRQRYLYTDDAQQTEAHLEIREDGTVGGAADQSPESLLQLKALKPGVIQILGVKTSRFLCQRPDGALYGSLHFDPEACSFRELLLEDGYNVYQSEAHGLPLHLPCNKSPHRDPAPRGPARFLPLPGLPPAPPEPPGILAPQPPDVGSSDPLSMVGPSQGCSPSYAS |  | 118 |
| dually PEGylated FGF21 mutant K69C, R175C (ligand, 20 kDa methoxy-PEG-maleimide on Cys 69 and on Cys 175) MHPIPDSSPLLQFGGQVRQRYLYTDDAQQTEAHLEIREDGTVGGAADQSPESLLQLKALKPGVIQILGVCTSRFLCQRPDGALYGSLHFDPEACSFRELLLEDGYNVYQSEAHGLPLHLPGNKSPHRDPAPRGPARFLPLPGLPPAPPEPPGILAPQPPDVGSSDPLSMVGPSQGCSPSYAS |  | 318 |
| PEGylated FGF21 mutant R126C (ligand, 20 kDa methoxy-PEG-maleimide on Cys 126) MHPIPDSSPLLQFGGQVRQRYLYTDDAQQTEAHLEIREDGTVGGAADQSPESLLQLKALKPGVIQILGVKTSRFLCQRPDGALYGSLHFDPEACSFRELLLEDGYNVYQSEAHGLPLHLPGNKSPHCDPAPRGPARFLPLPGLPPAPPEPPGILAPQPPDVGSSDPLSMVGPSQGRSPSYAS | 10 |  |
| dually PEGylated FGF21 mutant K69C, R77C (ligand, 20 kDa methoxy-PEG-maleimide on Cys 69 and on Cys 77) MHPIPDSSPLLQFGGQVRQRYLYTDDAQQTEAHLEIREDGTVGGAADQSPESLLQLKALKPGVIQILGVCTSRFLCQCPDGALYGSLHFDPEACSFRELLLEDGYNVYQSEAHGLPLHLPGNKSPHRDPAPRGPARFLPLPGLPPAPPEPPGILAPQPPDVGSSDPLSMVGPSQGRSPSYAS |  | 180 |
| PEGylated FGF21 mutant N121C (ligand, 20 kDa methoxy-PEG-maleimide on Cys 121) MHPIPDSSPLLQFGGQVRQRYLYTDDAQQTEAHLEIREDGTVGGAADQSPESLLQLKALKPGVIQILGVKTSRFLCQRPDGALYGSLHFDPEACSFRELLLEDGYNVYQSEAHGLPLHLPGCKSPHRDPAPRGPARFLPLPGLPPAPPEPPGILAPQPPDVGSSDPLSMVGPSQGRSPSYAS | 9.2 |  |
| PEGylated FGF21 mutant R77C (ligand, 20 kDa methoxy-PEG-maleimide on Cys 77) MHPIPDSSPLLQFGGQVRQRYLYTDDAQQTEAHLEIREDGTVGGAADQSPESLLQLKALKPGVIQILGVKTSRFLCQCPDGALYGSLHFDPEACSFRELLLEDGYNVYQSEAHGLPLHLPGNKSPHRDPAPRGPARFLPLPGLPPAPPEPPGILAPQPPDVGSSDPLSMVGPSQGRSPSYAS | 4.9 |  |
| PEGylated FGF21 mutant E37C (ligand, 20 kDa methoxy-PEG-maleimide on Cys 37) MHPIPDSSPLLQFGGQVRQRYLYTDDAQQTEAHLEIRCDGTVGGAADQSPESLLQLKALKPGVIQILGVKTSRFLCQRPDGALYGSLHFDPEACSFRELLLEDGYNVYQSEAHGLPLHLPGNKSPHRDPAPRGPARFLPLPGLPPAPPEPPGILAPQPPDVGSSDPLSMVGPSQGRSPSYAS | 6.9 |  |
| dually PEGylated FGF21 mutant E37C, G120C (ligand, 20 kDa methoxy-PEG-maleimide on Cys 37 and on Cys 120) MHPIPDSSPLLQFGGQVRQRYLYTDDAQQTEAHLEIRCDGTVGGAADQSPESLLQLKALKPGVIQILGVKTSRFLCQRPDGALYGSLHFDPEACSFRELLLEDGYNVYQSEAHGLPLHLPCNKSPHRDPAPRGPARFLPLPGLPPAPPEPPGILAPQPPDVGSSDPLSMVGPSQGRSPSYAS |  | 55 |
| PEGylated FGF21 mutant D79C (ligand, 20 kDa methoxy-PEG-maleimide on Cys 79) MHPIPDSSPLLQFGGQVRQRYLYTDDAQQTEAHLEIREDGTVGGAADQSPESLLQLKALKPGVIQILGVKTSRFLCQRPCGALYGSLHFDPEACSFRELLLEDGYNVYQSEAHGLPLHLPGNKSPHRDPAPRGPARFLPLPGLPPAPPEPPGILAPQPPDVGSSDPLSMVGPSQGRSPSYAS | 20.4 |  |
| PEGylated FGF21 mutant D46C (ligand, 20 kDa methoxy-PEG-maleimide on Cys 46) MHPIPDSSPLLQFGGQVRQRYLYTDDAQQTEAHLEIREDGTVGGAACQSPESLLQLKALKPGVIQILGVKTSRFLCQRPDGALYGSLHFDPEACSFRELLLEDGYNVYQSEAHGLPLHLPGNKSPHRDPAPRGPARFLPLPGLPPAPPEPPGILAPQPPDVGSSDPLSMVGPSQGRSPSYAS | 27.8 |  |
| dually PEGylated FGF21 mutant H125C, R175C (ligand, 20 kDa methoxy-PEG-maleimide on Cys 125 and on Cys 175) MHPIPDSSPLLQFGGQVRQRYLYTDDAQQTEAHLEIREDGTVGGAADQSPESLLQLKALKPGVIQILGVKTSRFLCQRPDGALYGSLHFDPEACSFRELLLEDGYNVYQSEAHGLPLHLPGNKSPCRDPAPRGPARFLPLPGLPPAPPEPPGILAPQPPDVGSSDPLSMVGPSQGCSPSYAS |  | 200 |
| PEGylated FGF21 mutant D38C (ligand, 20 kDa methoxy-PEG-maleimide on Cys 38) MHPIPDSSPLLQFGGQVRQRYLYTDDAQQTEAHLEIRECGTVGGAADQSPESLLQLKALKPGVIQILGVKTSRFLCQRPDGALYGSLHFDPEACSFRELLLEDGYNVYQSEAHGLPLHLPGNKSPHRDPAPRGPARFLPLPGLPPAPPEPPGILAPQPPDVGSSDPLSMVGPSQGRSPSYAS | 13.1 |  |
| dually PEGylated FGF21 mutant E37C, H125C (ligand, 20 kDa methoxy-PEG-maleimide on Cys 37 and on Cys 125) MHPIPDSSPLLQFGGQVRQRYLYTDDAQQTEAHLEIRCDGTVGGAADQSPESLLQLKALKPGVIQILGVKTSRFLCQRPDGALYGSLHFDPEACSFRELLLEDGYNVYQSEAHGLPLHLPGNKSPCRDPAPRGPARFLPLPGLPPAPPEPPGILAPQPPDVGSSDPLSMVGPSQGRSPSYAS |  | 64 |
